We go through three substances from US20160208004A1.

Targets include human IL-17RB (human) (UniProt Q9NRM6); human IL-17RA (human) (UniProt Q96F46); human IL-25 (human) (UniProt Q9H293).
Common to all, as to assay: cell-based or functional assay

Values joined by “and” are separate entries in the source; they are usually repeats but may differ in a detail not shown here. Equal entries are not always repeated.

human IL-25 (human), sequence (Q9H293 33-177 limits assumed): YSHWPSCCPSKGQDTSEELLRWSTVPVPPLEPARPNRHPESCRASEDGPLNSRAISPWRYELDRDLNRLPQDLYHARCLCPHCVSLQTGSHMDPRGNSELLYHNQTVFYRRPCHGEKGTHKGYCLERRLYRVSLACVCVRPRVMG
human IL-17RB (human), sequence (Q9NRM6 18-502): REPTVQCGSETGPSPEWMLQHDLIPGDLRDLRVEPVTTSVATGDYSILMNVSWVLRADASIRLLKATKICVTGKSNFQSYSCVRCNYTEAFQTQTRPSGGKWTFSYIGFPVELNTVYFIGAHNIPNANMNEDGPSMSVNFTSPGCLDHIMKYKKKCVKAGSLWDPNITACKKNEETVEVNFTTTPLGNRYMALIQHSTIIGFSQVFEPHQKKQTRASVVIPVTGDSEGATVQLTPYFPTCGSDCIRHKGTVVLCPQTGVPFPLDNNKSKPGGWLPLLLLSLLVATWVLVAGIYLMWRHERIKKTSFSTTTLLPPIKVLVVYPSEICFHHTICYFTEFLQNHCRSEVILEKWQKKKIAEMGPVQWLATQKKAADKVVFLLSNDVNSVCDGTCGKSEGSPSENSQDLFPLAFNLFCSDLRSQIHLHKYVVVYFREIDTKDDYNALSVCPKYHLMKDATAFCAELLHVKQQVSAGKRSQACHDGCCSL

Take “MAB1207: anti-HuIL-17RB MuIgG2b (R&D Systems) (antibody)”: in the assay with human IL-17RB (human), the % Inhibition of IL-5 production, TSLP treated human PBMC + IL-2 + IL-25; inhibitor 10 micrograms/mL worked out at 13%.

As for “MAB1771: anti-HuIL-17RA MuIgG2b (R&D Systems) (antibody)”, the % Inhibition of IL-5 production, TSLP treated human PBMC + IL-2 + IL-25; inhibitor 10 micrograms/mL with human IL-17RA (human) is 24% and 33%.

On to “HuIL-17RB: HIS (extracellular region of human IL-17RB fused to poly HIS) (from UniProt Q9NRM6 18-292) (receptor)”, for which, in the assay with human IL-25 (human), the % Inhibition of IL-5 production, TSLP treated human PBMC + IL-2 + IL-25; inhibitor 10 micrograms/mL was 67%.
